Results from ChEMBL document CHEMBL1138079.

Experiments:
[1] = target: Oxygen-insensitive NAD(P)H nitroreductase NfsB (Escherichia coli) (UniProt P38489); assay: Activity against Escherichia coli nitroreductase
[2] = substrate: NC(=O)c1cc(N2CC2)c([N+](=O)[O-])cc1[N+](=O)[O-]; assay: Activity against Escherichia coli nitroreductase

B1: Oxygen-insensitive NAD(P)H nitroreductase (Escherichia coli K-12), P38489 (protein)
chain: MDIISVALKRHSTKAFDASKKLTPEQAEQIKTLLQYSPSSTNSQPWHFIVASTEEGKARVAKSAAGNYVFNERKMLDASHVVVFCAKTAMDDVWLKLVVDQEDADGRFATPEAKAANDKGRKFFADMHRKDLHDDAEWMAKQVYLNVGNFLLGVAALGLDAVPIEGFDAAILDAEFGLKEKGYTSLVVVPVGHHSVEDFNATLPKSRLPQNITLTEV
Work on B1 yielded a Km [1] of 195 µM and a Km [2] of 881 µM.
